This assay addresses T1, His-SUMO-FREE1 (Arabidopsis thaliana, UniProt Q9ASS2 1-601).
T1 construct: FREE1 (FYVE1), Arabidopsis thaliana, locus AT1G20110; also called Sumo-tagged FREE1; not shown: His, N-terminal, kept; SUMO, N-terminal, kept
T1 sequence (looked up): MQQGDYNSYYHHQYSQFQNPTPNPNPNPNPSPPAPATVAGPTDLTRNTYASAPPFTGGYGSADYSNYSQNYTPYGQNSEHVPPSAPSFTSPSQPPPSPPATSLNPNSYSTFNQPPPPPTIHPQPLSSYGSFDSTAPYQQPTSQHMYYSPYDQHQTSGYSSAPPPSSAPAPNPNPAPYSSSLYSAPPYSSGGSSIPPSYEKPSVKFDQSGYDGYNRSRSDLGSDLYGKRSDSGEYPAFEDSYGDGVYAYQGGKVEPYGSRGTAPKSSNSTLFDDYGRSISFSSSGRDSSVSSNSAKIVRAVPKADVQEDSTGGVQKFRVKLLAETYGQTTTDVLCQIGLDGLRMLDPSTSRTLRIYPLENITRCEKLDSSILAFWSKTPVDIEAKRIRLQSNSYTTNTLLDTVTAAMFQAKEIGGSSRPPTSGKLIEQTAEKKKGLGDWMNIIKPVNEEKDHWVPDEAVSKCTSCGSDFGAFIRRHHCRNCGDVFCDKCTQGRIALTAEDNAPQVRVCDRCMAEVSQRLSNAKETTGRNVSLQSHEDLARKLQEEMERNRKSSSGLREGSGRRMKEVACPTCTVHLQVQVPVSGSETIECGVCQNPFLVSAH
The assay is described as follows: pull-down; competition: in vitro binding assay on amylose resin bound with MBP-Vps23A (or the Vps23A CC domain as bait) with a constant amount of one His-SUMO protein (30 pmol BRAF) and 10, 30, 100 or 300 pmol of the competing His-SUMO protein; immunoblot, quantified. The following applies: both partners purified. On the technique in general: Immunoblotting shows a protein as a band on a membrane.

B1: MBP-Vps23A (natural protein, Arabidopsis thaliana, UniProt Q9LHG8 1-398, looked up)
chain: MVPPPSNPQQVQQFLSSALSQRGPSSVPYEESNKWLIRQHLLNLISSYPSLEPKTASFMHNDGRSVNLLQADGTIPMPFHGVTYNIPVIIWLLESYPRHPPCVYVNPTADMIIKRPHAHVTPSGLVSLPYLQNWVYPSSNLVDLVSDLSAAFARDPPLYSRRRPQPPPPSPPTVYDSSLSRPPSADQSLPRPFPPSPYGGGVSRVQVQHVHHQQQSDDAAEVFKRNAINKMVEMVHSDLVSMRRAREAEAEELLSLQAGLKRREDELNIGLKEMVEEKETLEQQLQIISMNTDILDSWVRENQGKTKNLVDLDVDNAFECGDTLSKQMLECTALDLAIEDAIYSLDKSFQDGVVPFDQYLRNVRLLSREQFFHRATGSKVRAAQMEVQVAAIAGRLHS
notes: Vps23A/ELC, Arabidopsis thaliana, locus AT3G12400; Vector: in-house pRHisMBP; it may also add a His tag; source: E. coli BL21(DE3) pLysS, purified (amylose resin); not shown: MBP, N-terminal, kept
For the molecule B1, the binding result is given as “binds”.

Source of the values: PMC6141507, “A plant Bro1 domain protein BRAF regulates multivesicular body biogenesis and membrane protein homeostasis” (Nature Communications, 2018).
